The labels stand for the following.
B1: ZNF511 (parent)
chain: AAPFRFVARPVRFPREHQFFEDGD
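Also: lentivirally expressed fusions sorted by FACS into six bins by GFP to DsRed ratio, PSI derived from sequencing read proportions per bin multiplied by bin number.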

Variants of B1 are the subject of this data set. In words: protein stability index of a GFP-peptide fusion (GPS, HEK-293T) (PSI 1-6); higher = more stable. The settings on record: c terminus: a fixed tail appended.
Turning to AAPFRFVAHPVRFPREHQFFEDGD [R9H], the protein stability index worked out at 1.89. As for AAPFRFVAMPVRFPREHQFFEDGD [R9M], the protein stability index amounted to 1.95. In the case of AAPFRFVAFPVRFPREHQFFEDGD [R9F] it was 1.56; in that of AAPFRFVASPVRFPREHQFFEDGD [R9S], 2.2; in that of AAPFRFVALPVRFPREHQFFEDGD [R9L], 1.94. As to AAPFRFVANPVRFPREHQFFEDGD [R9N], the protein stability index was 1.38. In the case of AAPFRFVAEPVRFPREHQFFEDGD [R9E] it was 2.21; in that of AAPFRFVAWPVRFPREHQFFEDGD [R9W], 1.41; in that of AAPFRFVACPVRFPREHQFFEDGD [R9C], 1.32. AAPFRFVATPVRFPREHQFFEDGD [R9T]: the protein stability index came to 1.83. As for AAPFRFVARPVRFPRGHQFFEDGD [E16G], the protein stability index was found to be 2.53.

With AAPFRFVARPVRFPRSHQFFEDGD [E16S], the protein stability index was 2.1. For AAPFRFVARPVRFPRVHQFFEDGD [E16V], the protein stability index came to 2.34.

With AAPFRFVARPVRFPRNHQFFEDGD [E16N], the protein stability index amounted to 1.75. In the case of AAPFRFVARPVRFPRYHQFFEDGD [E16Y], the protein stability index is 1.68. In the case of AAPFRFVARPVRFPRDHQFFEDGD [E16D], the protein stability index came out at 1.98. As for AAPFRFVARPVRFPRQHQFFEDGD [E16Q], the protein stability index was determined as 2.18. Turning to AAPFRFVARPVRFPRTHQFFEDGD [E16T], the protein stability index was found to be 2.18. Turning to AAPFRFVARPVRFPRLHQFFEDGD [E16L], the protein stability index stood at 2.26.

For AAPFRFVARPVRFPRMHQFFEDGD [E16M], the protein stability index was found to be 1.57. As for AAPFRFVARPVRFPRWHQFFEDGD [E16W], the protein stability index turned out to be 1.79. For the variant AAPFRFVARPVRFPRPHQFFEDGD [E16P], the protein stability index was determined as 2.55. In the case of AAPFRFVARPVRFPRRHQFFEDGD [E16R] it was 2.32; in that of AAPFRFVARPVRFPRIHQFFEDGD [E16I], 2.03.

Regarding AAPFRFVARPVRFPRHHQFFEDGD [E16H], the protein stability index amounted to 2.25.

As to AAPFRFVARPVRFPRFHQFFEDGD [E16F], the protein stability index is 1.82. AAPFRFVARPVRFPRCHQFFEDGD [E16C]: the protein stability index turned out to be 1.93. Take AAPFRFVARPVRFPRAHQFFEDGD [E16A]: the protein stability index stood at 3.2. As for AAPFRFVARPVRFPRKHQFFEDGD [E16K], the protein stability index worked out at 2.15. Take AAPFRFVARPVRFFREHQFFEDGD [P14F]: the protein stability index was 2. As to AAPFRFVARPVRFIREHQFFEDGD [P14I], the protein stability index was determined as 2.33. Under AAPFRFVARPVRFWREHQFFEDGD [P14W] stands 1.34; under AAPFRFVARPVRFLREHQFFEDGD [P14L], 1.84. In the case of AAPFRFVARPVRFRREHQFFEDGD [P14R], the protein stability index worked out at 2.51.

For AAPFRFVARPVRFDREHQFFEDGD [P14D], the protein stability index was 2.26. For AAPFRFVARPVRFNREHQFFEDGD [P14N], the protein stability index was 2.1.

As for AAPFRFVARPVRFMREHQFFEDGD [P14M], the protein stability index turned out to be 2.17. With AAPFRFVARPVRFEREHQFFEDGD [P14E], the protein stability index amounted to 2.45.

Take AAPFRFVARPVRFQREHQFFEDGD [P14Q]: the protein stability index was found to be 2.15. For AAPFRFVARPVRFSREHQFFEDGD [P14S], the protein stability index stood at 1.88. For the variant AAPFRFVARPVRFCREHQFFEDGD [P14C], the protein stability index came to 2.02. As for AAPFRFVARPVRFAREHQFFEDGD [P14A], the protein stability index came to 2.16.

On to AAPFRFVARPVRFGREHQFFEDGD [P14G], for which the protein stability index was 1.76. Consider AAPFRFVARPVRFYREHQFFEDGD [P14Y], for which the protein stability index was 1.8. In the case of AAPFRFVARPVRFHREHQFFEDGD [P14H] it was 1.69; in that of AAPFRFVARPVRFTREHQFFEDGD [P14T], 1.87. For AAPFRFVARPVRFKREHQFFEDGD [P14K], the protein stability index is 2.93.

AAPFRFVARPVRFVREHQFFEDGD [P14V]: the protein stability index was determined as 2.22.

Consider AAPFRFVARPVRFPREEQFFEDGD [H17E], for which the protein stability index was determined as 2.71. For the variant AAPFRFVARPVRFPREFQFFEDGD [H17F], the protein stability index is 1.73. Under AAPFRFVARPVRFPREKQFFEDGD [H17K] stands 2.2; under AAPFRFVARPVRFPREGQFFEDGD [H17G], 2.29; under AAPFRFVARPVRFPREIQFFEDGD [H17I], 2.59. Under AAPFRFVARPVRFPREMQFFEDGD [H17M] stands 2.37; under AAPFRFVARPVRFPRECQFFEDGD [H17C], 2.66.

For the variant AAPFRFVARPVRFPREDQFFEDGD [H17D], the protein stability index is 2.05.

Consider AAPFRFVARPVRFPRELQFFEDGD [H17L], for which the protein stability index is 2.15. Take AAPFRFVARPVRFPREAQFFEDGD [H17A]: the protein stability index came out at 2.66.

For the variant AAPFRFVARPCRFPREHQFFEDGD [V11C], the protein stability index was 2.02.

As for AAPFRFVARPIRFPREHQFFEDGD [V11I], the protein stability index was found to be 2.08. On to AAPFRFVARPSRFPREHQFFEDGD [V11S], for which the protein stability index amounted to 2.34. AAPFRFVARPKRFPREHQFFEDGD [V11K]: the protein stability index came to 1.75.

As to AAPFRFVARPMRFPREHQFFEDGD [V11M], the protein stability index is 2.06. With AAPFRFVARPPRFPREHQFFEDGD [V11P], the protein stability index stood at 2.03. AAPFRFVARPYRFPREHQFFEDGD [V11Y]: the protein stability index came out at 1.74. On to AAPFRFVARPWRFPREHQFFEDGD [V11W], for which the protein stability index was found to be 1.78. For AAPFRFVARPRRFPREHQFFEDGD [V11R], the protein stability index stood at 2. Consider AAPFRFVARPGRFPREHQFFEDGD [V11G], for which the protein stability index was determined as 1.53. Regarding AAPFRFVARPNRFPREHQFFEDGD [V11N], the protein stability index amounted to 1.95. Under AAPFRFVARPQRFPREHQFFEDGD [V11Q] stands 2.38; under AAPFRFVARPLRFPREHQFFEDGD [V11L], 2.02. As to AAPFRFVARPTRFPREHQFFEDGD [V11T], the protein stability index came to 1.94. Regarding AAPFRFVARPDRFPREHQFFEDGD [V11D], the protein stability index is 2.14. AAPFRFVARPERFPREHQFFEDGD [V11E]: the protein stability index was determined as 1.99. As for AAPFRFVARPFRFPREHQFFEDGD [V11F], the protein stability index was determined as 1.99. For AAPFRFVARPARFPREHQFFEDGD [V11A], the protein stability index came out at 1.96.

For the variant AAPFRFVARPHRFPREHQFFEDGD [V11H], the protein stability index worked out at 2.04. Take AAPFRFVARYVRFPREHQFFEDGD [P10Y]: the protein stability index came out at 2.59.

As for AAPFRFVARHVRFPREHQFFEDGD [P10H], the protein stability index is 2.14. On to AAPFRFVARLVRFPREHQFFEDGD [P10L], for which the protein stability index was 1.75. In the case of AAPFRFVARAVRFPREHQFFEDGD [P10A] it was 1.96; in that of AAPFRFVARFVRFPREHQFFEDGD [P10F], 2.44. In the case of AAPFRFVARSVRFPREHQFFEDGD [P10S] it was 1.5; in that of AAPFRFVARVVRFPREHQFFEDGD [P10V], 2.06. Regarding AAPFRFVARDVRFPREHQFFEDGD [P10D], the protein stability index came to 2.07. On to AAPFRFVARIVRFPREHQFFEDGD [P10I], for which the protein stability index came out at 4.18. On to AAPFRFVARCVRFPREHQFFEDGD [P10C], for which the protein stability index is 2.36.

As for AAPFRFVARQVRFPREHQFFEDGD [P10Q], the protein stability index worked out at 2.08. In the case of AAPFRFVARRVRFPREHQFFEDGD [P10R], the protein stability index stood at 1.8.

For the variant AAPFRFVAREVRFPREHQFFEDGD [P10E], the protein stability index was determined as 1.81. Turning to AAPFRFVARKVRFPREHQFFEDGD [P10K], the protein stability index was found to be 2.77. In the case of AAPFRFVARGVRFPREHQFFEDGD [P10G], the protein stability index was determined as 1.87. Consider AAPFRFVARTVRFPREHQFFEDGD [P10T], for which the protein stability index was 1.29. In the case of AAPFRFVARNVRFPREHQFFEDGD [P10N] it was 1.88.

Values taken from the supplement of paper PMC10567573.
